In PMC6713926 (2019):
Substitutions are numbered along the chain they refer to. Names may count otherwise.

B1: FPht Q343R (complex)
chain 1: DPVLCFTQYEESSGKCKGLLGGGVSVEDCCLNTAFAYQKRSGGLCQPCRSPRWSLWSTWAPCSVTCSEGSQLRYRRCVGWNGQCSGKVAPGTLEWQLQACEDQQCCPEMGGWSGWGPWEPCSVTCSKGTRTRRRACNHPAPKCGGHCPGQAQESEACDTQQVCPTHGAWATWGPWTPCSASCHGGPHEPKETRSRKCSAPEPSQKPPGKPCPGLAYEQRRCTGLPPCP
chain 2: VAGGWGPWGPVSPCPVTCGLGQTMEQRTCNHPVPQHGGPFCAGDATRTHICNTAVPCPVDGEWDSWGEWSPCIRRNMKSISCQEIPGRQSRGRTCRGRKFDGHRCAGQQQDIRHCYSIQHCPLKGSWSEWSTWGLCMPPCGPNPTRARQRLCTPLLPKYPPTVSMVEGQGEKNVTFWGRPLPRCEELQGQKLVVEEKRPCLHVPACKDPEEEEL
B2: FPht Y414D (complex)
chain 1: B1 chain 1
chain 2: B1 chain 2 with R88Q, Y159D

Molecular target: Biotinylated C3b (human, UniProt P01024 23-667; P01024 749-1663, biotin (Maleimide-PEG2-Biotin))
Assay: BLI

Biotinylated C3b, sequence (P01024 23-667, chain 1 of 2): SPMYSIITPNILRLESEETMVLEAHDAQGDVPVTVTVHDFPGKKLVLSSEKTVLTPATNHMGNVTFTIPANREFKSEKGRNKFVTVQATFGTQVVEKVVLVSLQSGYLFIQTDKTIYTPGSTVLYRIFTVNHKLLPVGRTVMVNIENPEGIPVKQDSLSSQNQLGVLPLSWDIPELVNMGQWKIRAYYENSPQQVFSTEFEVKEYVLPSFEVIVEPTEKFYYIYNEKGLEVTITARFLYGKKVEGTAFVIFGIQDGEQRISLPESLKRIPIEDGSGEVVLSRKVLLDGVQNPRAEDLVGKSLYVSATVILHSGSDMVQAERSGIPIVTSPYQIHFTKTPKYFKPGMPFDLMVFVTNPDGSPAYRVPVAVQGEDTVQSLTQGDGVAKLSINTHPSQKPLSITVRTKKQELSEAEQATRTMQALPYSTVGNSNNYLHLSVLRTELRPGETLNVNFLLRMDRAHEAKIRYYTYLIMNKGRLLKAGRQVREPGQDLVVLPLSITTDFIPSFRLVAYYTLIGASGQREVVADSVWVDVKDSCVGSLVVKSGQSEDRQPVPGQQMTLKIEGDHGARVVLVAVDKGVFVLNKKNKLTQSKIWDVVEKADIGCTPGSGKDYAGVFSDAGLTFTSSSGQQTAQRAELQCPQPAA
Biotinylated C3b, sequence (P01024 749-1663, chain 2 of 2): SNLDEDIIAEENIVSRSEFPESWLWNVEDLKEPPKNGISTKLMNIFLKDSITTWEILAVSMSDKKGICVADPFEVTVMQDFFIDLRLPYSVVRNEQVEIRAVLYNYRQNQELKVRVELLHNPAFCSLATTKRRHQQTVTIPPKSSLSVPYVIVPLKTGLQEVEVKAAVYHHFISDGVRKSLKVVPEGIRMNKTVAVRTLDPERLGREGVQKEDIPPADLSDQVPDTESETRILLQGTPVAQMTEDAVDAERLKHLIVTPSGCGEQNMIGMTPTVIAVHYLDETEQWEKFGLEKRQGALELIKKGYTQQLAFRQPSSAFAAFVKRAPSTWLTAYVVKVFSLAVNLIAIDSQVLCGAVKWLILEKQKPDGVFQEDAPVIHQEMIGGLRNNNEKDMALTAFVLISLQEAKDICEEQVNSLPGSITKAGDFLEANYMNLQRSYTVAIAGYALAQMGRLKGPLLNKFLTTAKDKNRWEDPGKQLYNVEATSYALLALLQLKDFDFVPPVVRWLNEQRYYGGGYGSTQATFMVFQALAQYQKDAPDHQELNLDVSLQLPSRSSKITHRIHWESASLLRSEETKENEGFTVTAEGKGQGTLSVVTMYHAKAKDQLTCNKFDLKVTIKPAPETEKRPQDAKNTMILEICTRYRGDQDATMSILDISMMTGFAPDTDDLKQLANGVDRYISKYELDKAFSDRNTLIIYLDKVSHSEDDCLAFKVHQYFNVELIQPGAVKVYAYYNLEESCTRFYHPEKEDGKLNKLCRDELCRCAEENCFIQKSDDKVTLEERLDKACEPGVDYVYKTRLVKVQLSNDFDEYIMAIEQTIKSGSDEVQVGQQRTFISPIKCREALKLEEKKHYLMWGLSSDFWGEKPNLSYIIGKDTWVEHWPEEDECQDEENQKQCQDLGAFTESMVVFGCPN

Binder | Kd
B1 | 4 µM
B2 | 5 µM
